Test results published in patent US20140213513A1 (Sanofi, priority 2012, published 2014).
*1 amine or outer side, *2 acyl side, *3 side chain or, on linkers, in order; H or OH if unused. Where a SMILES comes first, the peptide text is derived from it. Where no end group is shown, it is not given here. Side-chain parts run from the residue outwards. [ ]: non-standard residue; d: D form. The star is where a group is joined. γGlu = O=C(O)[C@H](CCC(=O)[*:2])N[*:1]; Palmitoyl = CCCCCCCCCCCCCCCC(=O)*; Aib = CC(C)(N)C(=O)O

Key:
[1] = target: T1, human GLP-1 receptor (hGLP-1 R) (Homo sapiens, UniProt P43220); test: cAMP response of HEK-293 cells stably expressing human GLP-1 receptor (HTRF); format: cell-based; settings: Table 7; cAMP formation
T1 construct: expressed in transfected cells
T1 sequence (P43220 24-463): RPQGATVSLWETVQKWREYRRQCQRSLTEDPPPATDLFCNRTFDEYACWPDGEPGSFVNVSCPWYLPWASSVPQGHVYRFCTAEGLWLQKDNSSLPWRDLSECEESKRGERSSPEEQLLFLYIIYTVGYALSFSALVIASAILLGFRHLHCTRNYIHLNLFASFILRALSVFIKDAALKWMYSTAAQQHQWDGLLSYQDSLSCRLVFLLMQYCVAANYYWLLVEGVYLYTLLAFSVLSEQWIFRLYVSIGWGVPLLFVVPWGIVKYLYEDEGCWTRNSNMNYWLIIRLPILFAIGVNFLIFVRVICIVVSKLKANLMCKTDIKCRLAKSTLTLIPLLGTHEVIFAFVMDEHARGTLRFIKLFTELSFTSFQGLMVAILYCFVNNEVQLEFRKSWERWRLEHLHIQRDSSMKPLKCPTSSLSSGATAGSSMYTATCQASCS
Protocol: (§1) cAMP content of cells was determined using a kit from Cisbio Corp. (cat. no. 62AM4PEC) based on HTRF (Homogenous Time Resolved Fluorescence). For preparation, cells were split into T175 culture flasks and grown overnight to near confluency in medium (DMEM/10% FBS). Medium was then removed and cells washed with PBS lacking calcium and magnesium, followed by proteinase treatment with accutase (Sigma-Aldrich cat. no. A6964). Detached cells were washed and resuspended in assay buffer (1×HBSS; 20 mM HEPES, 0.1% BSA, 2 mM IBMX) and cellular density determined. They were then diluted to 400000 cells/ml and 25 μl-aliquots dispensed into the wells of 96-well plates. For measurement, 25 μl of test compound in assay buffer was added to the wells, followed by incubation for 30 minutes at room temperature.

[2] = target: T2, human glucagon receptor (hGLUC R) (Homo sapiens, UniProt P47871); test: cAMP response of HEK-293 cells stably expressing human glucagon receptor (HTRF); format: cell-based; settings: Table 7; cAMP formation
T2 construct: expressed in transfected cells
T2 sequence (P47871 26-477): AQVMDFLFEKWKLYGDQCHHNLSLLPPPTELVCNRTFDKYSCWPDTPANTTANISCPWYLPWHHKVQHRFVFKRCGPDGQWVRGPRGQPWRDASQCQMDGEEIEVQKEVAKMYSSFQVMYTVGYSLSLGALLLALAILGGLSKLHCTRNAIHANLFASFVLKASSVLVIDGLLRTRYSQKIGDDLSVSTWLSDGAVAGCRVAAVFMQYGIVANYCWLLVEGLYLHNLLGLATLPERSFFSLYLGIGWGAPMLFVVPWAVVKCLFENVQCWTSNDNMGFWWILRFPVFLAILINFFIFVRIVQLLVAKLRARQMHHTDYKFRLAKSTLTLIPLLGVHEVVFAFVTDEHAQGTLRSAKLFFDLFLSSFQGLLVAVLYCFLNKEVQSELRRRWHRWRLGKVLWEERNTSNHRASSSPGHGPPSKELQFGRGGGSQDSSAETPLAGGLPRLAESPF
Protocol: as §1

[3] = target: T3, human GIP receptor (human, UniProt P48546 22-466); test: cell-based or functional assay
T3 sequence (looked up): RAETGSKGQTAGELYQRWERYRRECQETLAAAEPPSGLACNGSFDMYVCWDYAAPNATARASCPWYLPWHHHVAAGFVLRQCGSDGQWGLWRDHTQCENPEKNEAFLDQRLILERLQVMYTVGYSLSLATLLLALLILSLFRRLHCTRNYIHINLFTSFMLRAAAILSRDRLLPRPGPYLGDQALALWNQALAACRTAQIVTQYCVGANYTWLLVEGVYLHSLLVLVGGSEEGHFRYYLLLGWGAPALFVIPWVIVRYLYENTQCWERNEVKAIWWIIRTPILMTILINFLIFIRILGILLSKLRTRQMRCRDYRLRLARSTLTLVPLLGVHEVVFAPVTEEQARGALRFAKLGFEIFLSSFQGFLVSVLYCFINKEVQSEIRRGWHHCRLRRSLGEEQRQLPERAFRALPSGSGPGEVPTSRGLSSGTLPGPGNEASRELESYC

[4] = target: human GLP-1 receptor (human, UniProt P43220 24-463); test: cell-based or functional assay
[5] = target: human glucagon receptor (human, UniProt P47871 26-477); test: cell-based or functional assay
human glucagon receptor, sequence (P47871 26-477): as the sequence (P47871 26-477) above

## CCCCCCCCCCCCCCCC(=O)N[C@@H](CCC(=O)NCCCC[C@H](NC(=O)[C@H](CCC(N)=O)NC(=O)[C@@H](NC(=O)[C@H](CO)NC(=O)[C@H](CC(C)C)NC(=O)[C@H](CC(=O)O)NC(=O)[C@H](CO)NC(=O)[C@@H](NC(=O)[C@H](Cc1ccccc1)NC(=O)[C@@H](NC(=O)CNC(=O)[C@H](CCC(N)=O)NC(=O)C(C)(C)NC(=O)[C@@H](N)Cc1ccc(O)cc1)[C@@H](C)O)[C@@H](C)O)[C@@H](C)CC)C(=O)N[C@@H](CC(=O)O)C(=O)N[C@@H](CCCCN)C(=O)N[C@@H](CCCNC(=N)N)C(=O)N[C@@H](C)C(=O)N[C@H](C(=O)N[C@@H](CCC(N)=O)C(=O)N[C@@H](CC(C)C)C(=O)N[C@@H](Cc1ccccc1)C(=O)N[C@H](C(=O)N[C@@H](CCC(=O)O)C(=O)N[C@@H](Cc1c[nH]c2ccccc12)C(=O)N[C@@H](CC(C)C)C(=O)N[C@@H](CCCCN)C(=O)N[C@@H](CC(N)=O)C(=O)NCC(=O)NCC(=O)N1CCC[C@H]1C(=O)N[C@@H](CO)C(=O)N[C@@H](CO)C(=O)NCC(=O)N[C@@H](C)C(=O)N1CCC[C@H]1C(=O)N1CCC[C@H]1C(=O)N1CCC[C@H]1C(=O)N[C@@H](CO)C(N)=O)[C@@H](C)CC)C(C)C)C(=O)O [SEQ ID NO: 47, Y-Aib-Q-G-T-F-T-S-D-L-S-I-Q-K(yE-x53)-DKRAVQLFIEWLKNGGPSSGAPPPS-NH2] (H-Y[Aib]QGTFTSDLSIQK([γGlu-Palmitoyl])DKRAVQLFIEWLKNGGPSSGAPPPS-NH2)
[1]
  EC50: 15.6 pM
[2]
  EC50: 2390 pM

## CCCCCCCCCCCCCCCC(=O)N[C@@H](CCC(=O)NCCCC[C@H](NC(=O)[C@H](CCC(N)=O)NC(=O)[C@@H](NC(=O)[C@H](CO)NC(=O)[C@H](CC(C)C)NC(=O)[C@H](CC(=O)O)NC(=O)[C@H](CO)NC(=O)[C@@H](NC(=O)[C@H](Cc1ccccc1)NC(=O)[C@@H](NC(=O)CNC(=O)[C@H](CCC(=O)O)NC(=O)C(C)(C)NC(=O)[C@@H](N)Cc1ccc(O)cc1)[C@@H](C)O)[C@@H](C)O)[C@@H](C)CC)C(=O)N[C@@H](CC(=O)O)C(=O)N[C@@H](CCCCN)C(=O)N[C@@H](CCCNC(=N)N)C(=O)N[C@@H](CCCCN)C(=O)N[C@@H](C)C(=O)N[C@@H](CCC(N)=O)C(=O)N[C@@H](CC(=O)O)C(=O)N[C@@H](Cc1ccccc1)C(=O)N[C@H](C(=O)N[C@@H](CCC(=O)O)C(=O)N[C@@H](Cc1c[nH]c2ccccc12)C(=O)N[C@@H](CC(C)C)C(=O)N[C@@H](CCCCN)C(=O)N[C@@H](CC(N)=O)C(=O)NCC(=O)NCC(=O)N1CCC[C@H]1C(=O)N[C@@H](CO)C(=O)N[C@@H](CO)C(=O)NCC(=O)N[C@@H](C)C(=O)N1CCC[C@H]1C(=O)N1CCC[C@H]1C(=O)N1CCC[C@H]1C(=O)N[C@@H](CO)C(N)=O)[C@@H](C)CC)C(=O)O [SEQ ID NO: 54, Y-Aib-E-G-T-F-T-S-D-L-S-I-Q-K(yE-x53)-DKRKAQDFIEWLKNGGPSSGAPPPS-NH2] (H-Y[Aib]EGTFTSDLSIQK([γGlu-Palmitoyl])DKRKAQDFIEWLKNGGPSSGAPPPS-NH2)
[1]
  EC50: 66.8 pM
[2]
  EC50: 2620 pM

B1: exendin-4 peptide analogue SEQ ID NO: 37 (peptide)
peptide: Y[Aib]EGTFTSDLSIQK([γGlu-Palmitoyl])EERAAHEFIEWLKR[Aib]GPSSGAPPPS-NH2
modifications: N-terminus assumed
SMILES: CCCCCCCCCCCCCCCC(=O)N[C@@H](CCC(=O)NCCCC[C@H](NC(=O)[C@H](CCC(N)=O)NC(=O)[C@@H](NC(=O)[C@H](CO)NC(=O)[C@H](CC(C)C)NC(=O)[C@H](CC(=O)O)NC(=O)[C@H](CO)NC(=O)[C@@H](NC(=O)[C@H](Cc1ccccc1)NC(=O)[C@@H](NC(=O)CNC(=O)[C@H](CCC(=O)O)NC(=O)C(C)(C)NC(=O)[C@@H](N)Cc1ccc(O)cc1)[C@@H](C)O)[C@@H](C)O)[C@@H](C)CC)C(=O)N[C@@H](CCC(=O)O)C(=O)N[C@@H](CCC(=O)O)C(=O)N[C@@H](CCCNC(=N)N)C(=O)N[C@@H](C)C(=O)N[C@@H](C)C(=O)N[C@@H](Cc1c[nH]cn1)C(=O)N[C@@H](CCC(=O)O)C(=O)N[C@@H](Cc1ccccc1)C(=O)N[C@H](C(=O)N[C@@H](CCC(=O)O)C(=O)N[C@@H](Cc1c[nH]c2ccccc12)C(=O)N[C@@H](CC(C)C)C(=O)N[C@@H](CCCCN)C(=O)N[C@@H](CCCNC(=N)N)C(=O)NC(C)(C)C(=O)NCC(=O)N1CCC[C@H]1C(=O)N[C@@H](CO)C(=O)N[C@@H](CO)C(=O)NCC(=O)N[C@@H](C)C(=O)N1CCC[C@H]1C(=O)N1CCC[C@H]1C(=O)N1CCC[C@H]1C(=O)N[C@@H](CO)C(N)=O)[C@@H](C)CC)C(=O)O
[3]
  EC50 hGIP R: 12.1 pM
[4]
  EC50 hGLP-1 R: 6.6 pM
[5]
  EC50 hGLUC R: 12100 pM

B2: exendin-4 peptide analogue SEQ ID NO: 35 (peptide)
peptide: Y[Aib]QGTFTSDLSIQK([γGlu-Palmitoyl])DERAAKDFIEWLKAGGPSSGAPPPS-NH2
modifications: N-terminus assumed
SMILES: CCCCCCCCCCCCCCCC(=O)N[C@@H](CCC(=O)NCCCC[C@H](NC(=O)[C@H](CCC(N)=O)NC(=O)[C@@H](NC(=O)[C@H](CO)NC(=O)[C@H](CC(C)C)NC(=O)[C@H](CC(=O)O)NC(=O)[C@H](CO)NC(=O)[C@@H](NC(=O)[C@H](Cc1ccccc1)NC(=O)[C@@H](NC(=O)CNC(=O)[C@H](CCC(N)=O)NC(=O)C(C)(C)NC(=O)[C@@H](N)Cc1ccc(O)cc1)[C@@H](C)O)[C@@H](C)O)[C@@H](C)CC)C(=O)N[C@@H](CC(=O)O)C(=O)N[C@@H](CCC(=O)O)C(=O)N[C@@H](CCCNC(=N)N)C(=O)N[C@@H](C)C(=O)N[C@@H](C)C(=O)N[C@@H](CCCCN)C(=O)N[C@@H](CC(=O)O)C(=O)N[C@@H](Cc1ccccc1)C(=O)N[C@H](C(=O)N[C@@H](CCC(=O)O)C(=O)N[C@@H](Cc1c[nH]c2ccccc12)C(=O)N[C@@H](CC(C)C)C(=O)N[C@@H](CCCCN)C(=O)N[C@@H](C)C(=O)NCC(=O)NCC(=O)N1CCC[C@H]1C(=O)N[C@@H](CO)C(=O)N[C@@H](CO)C(=O)NCC(=O)N[C@@H](C)C(=O)N1CCC[C@H]1C(=O)N1CCC[C@H]1C(=O)N1CCC[C@H]1C(=O)N[C@@H](CO)C(N)=O)[C@@H](C)CC)C(=O)O
[3]
  EC50 hGIP R: 18.2 pM
[4]
  EC50 hGLP-1 R: 3.5 pM
[5]
  EC50 hGLUC R: 123 pM

B3: exendin-4 peptide analogue SEQ ID NO: 36 (peptide)
peptide: Y[Aib]QGTFTSDLSIQK([γGlu-Palmitoyl])EKRAAHEFIEWLKNTGPSSGAPPPS-NH2
modifications: N-terminus assumed
SMILES: CCCCCCCCCCCCCCCC(=O)N[C@@H](CCC(=O)NCCCC[C@H](NC(=O)[C@H](CCC(N)=O)NC(=O)[C@@H](NC(=O)[C@H](CO)NC(=O)[C@H](CC(C)C)NC(=O)[C@H](CC(=O)O)NC(=O)[C@H](CO)NC(=O)[C@@H](NC(=O)[C@H](Cc1ccccc1)NC(=O)[C@@H](NC(=O)CNC(=O)[C@H](CCC(N)=O)NC(=O)C(C)(C)NC(=O)[C@@H](N)Cc1ccc(O)cc1)[C@@H](C)O)[C@@H](C)O)[C@@H](C)CC)C(=O)N[C@@H](CCC(=O)O)C(=O)N[C@@H](CCCCN)C(=O)N[C@@H](CCCNC(=N)N)C(=O)N[C@@H](C)C(=O)N[C@@H](C)C(=O)N[C@@H](Cc1c[nH]cn1)C(=O)N[C@@H](CCC(=O)O)C(=O)N[C@@H](Cc1ccccc1)C(=O)N[C@H](C(=O)N[C@@H](CCC(=O)O)C(=O)N[C@@H](Cc1c[nH]c2ccccc12)C(=O)N[C@@H](CC(C)C)C(=O)N[C@@H](CCCCN)C(=O)N[C@@H](CC(N)=O)C(=O)N[C@H](C(=O)NCC(=O)N1CCC[C@H]1C(=O)N[C@@H](CO)C(=O)N[C@@H](CO)C(=O)NCC(=O)N[C@@H](C)C(=O)N1CCC[C@H]1C(=O)N1CCC[C@H]1C(=O)N1CCC[C@H]1C(=O)N[C@@H](CO)C(N)=O)[C@@H](C)O)[C@@H](C)CC)C(=O)O
[3]
  EC50 hGIP R: 30.1 pM
[4]
  EC50 hGLP-1 R: 5.2 pM
[5]
  EC50 hGLUC R: 39.5 pM
